2 molecules from article PMC8713425 (Journal of medicinal chemistry, 2021) can be followed below.

In this experiment the target is LGR4 (leucine-rich repeat containing, G protein-coupled receptor 4) (UniProt Q9BXB1 25-951). Nature of the experiment: whole-cell binding assay.

Where a chain is given by its changes, count along the chain named. In names and notes the source's numbering stands.

B1: R4Fu-WT (wild-type RSPO4 furin domain fused to human IgG1 Fc) (Fc fusion)
chain: VGTGLGGNCTGCIICSEENGCSTCQQRLFLFIRREGIRQYGKCLHDCPPGYFGIRGQEVNRCKKCGATCESCFSQDFCIRCKRQFYLYKGKCLPTCPPSGGGGSGGGGSGGGGS
The molecule B1 registered a Kd of 3.2 nM.

B2: R4Fu-Q65R (RSPO4 furin domain Q65R fused to human IgG1 Fc) (Fc fusion)
chain: B1 chain with Q39R
B2 displayed a Kd of 6.2 nM.
